Data on 2 proteins can be found in patent US20170233495.

The series concerns the target All antibodies according to the invention, which were tested (Example 4).

B1: recombinant catalytic domain of human MMP12 (protein)
chain: GPVWRKHYITYRINNYTPDMNREDVDYAIRKAFQVWSNVTPLKFSKINTGMADILVVFARGAHGDFHAFDGKGGILAHAFGPGSGIGGDAHFDEDEFWTTHSGGTNLFLTAVHEIGHSLGLGHSSDPKAVMFPTYKYVDINTFRLSADDIRGIQSLYG
In the case of B1, the “cleavage of fluorogenic peptide OmniMMP RED by MMP catalytic domain, antibody at 100 nM” value is reported as “had no significant effect on the catalytic activity of the eight other human MMPs tested”.

B2: recombinant catalytic domain of human MMP1 (protein)
chain: FVLTEGNPRWEQTHLTYRIENYTPDLPRADVDHAIEKAFQLWSNVTPLTFTKVSEGQADIMISFVRGDHRDNSPFDGPGGNLAHAFQPGPGIGGDAHFDEDERWTNNFREYNLHRVAAHELGHSLGLSHSTDIGALMYPSYTFSGDVQLAQDDIDGIQAIYGRSQNPVQP
Consider B2, for which the “cleavage of fluorogenic peptide OmniMMP RED by MMP catalytic domain, antibody at 100 nM” value is “had no significant effect on the catalytic activity of the eight other human MMPs tested”.
